{"source": "paper PMC7468311", "about": "(Acta Pharmacologica Sinica, 2020)", "key": {"[1]": {"biological_target": "DTIP C6A-C14A mutant", "assay": "BLI"}, "[2]": {"biological_target": "DTIP D24A mutant", "assay": "BLI"}, "[3]": {"biological_target": "DTIP E35A mutant", "assay": "BLI"}, "[4]": {"biological_target": "DTIP Y3A mutant", "assay": "BLI"}, "[5]": {"biological_target": "direct thrombin inhibitor peptide (DTIP)", "assay": "BLI"}, "[6]": {"system": "rat plasma", "assay": "Plasma clotting measurement in vitro, aPTT", "assay_type": "biochemical, Sprague Dawley (SD) rats", "settings": "at the same concentration"}, "[7]": {"system": "rat plasma", "assay": "Plasma clotting measurement in vitro, PT", "assay_type": "biochemical, Sprague Dawley (SD) rats", "settings": "at the same concentration"}, "[8]": {"system": "rat plasma", "assay": "Plasma clotting measurement in vitro, TT", "assay_type": "biochemical, Sprague Dawley (SD) rats", "settings": "at the same concentration"}, "[9]": {"biological_target": "thrombin (Homo sapiens, UniProt P00734)", "assay": "Bio-layer interferometry", "assay_type": "binding"}}, "note": "pKd: −log10 of the molar value. “Also recorded” adds a separate entry of the source.", "data": [{"substance": "thrombin (enzyme)", "values": [{"measurement": "pKd", "setting": "[1]", "value": 6.86}, {"measurement": "pKd", "setting": "[2]", "value": 6.71}, {"measurement": "pKd", "setting": "[3]", "value": 6.73}, {"measurement": "pKd", "setting": "[4]", "value": 6.79}, {"measurement": "pKd", "setting": "[5]", "value": 6.79}]}, {"substance": "bivalirudin", "values": [{"measurement": "aPTT of DTIP compared with bivalirudin", "setting": "[6]", "value": "on the same order of magnitude"}, {"measurement": "PT of DTIP compared with bivalirudin", "setting": "[7]", "value": "on the same order of magnitude"}, {"measurement": "TT of DTIP compared with bivalirudin", "setting": "[8]", "value": "on the same order of magnitude"}]}, {"substance": "enoxaparin sodium", "values": [{"measurement": "Binding of thrombin in BLI (in words)", "setting": "[9]", "value": "no direct interaction; also recorded: No binding"}]}]}
